Earlier results in paper PMC6156988.

Biological target: EspFu (Escherichia coli) (UniProt P0DJ88)
Chain of UniProt P0DJ88 (P0DJ88 whole entry): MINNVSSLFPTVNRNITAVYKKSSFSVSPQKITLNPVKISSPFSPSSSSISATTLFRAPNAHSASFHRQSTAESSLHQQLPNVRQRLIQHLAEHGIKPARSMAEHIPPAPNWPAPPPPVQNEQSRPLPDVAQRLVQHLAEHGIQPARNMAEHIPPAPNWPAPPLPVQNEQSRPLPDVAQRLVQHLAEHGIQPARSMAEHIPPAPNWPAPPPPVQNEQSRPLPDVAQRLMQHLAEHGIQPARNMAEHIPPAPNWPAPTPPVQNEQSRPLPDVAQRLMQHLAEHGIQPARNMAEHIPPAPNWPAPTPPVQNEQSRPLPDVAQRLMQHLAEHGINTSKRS

IRTKS SH3 (from UniProt Q9UHR4)
Kd: 500 nM
